Source: the supplement of paper PMC10724198
± gives the standard deviation of the averaged measurements.

Test system: Saccharomyces cerevisiae
Assay: protein stability index of tFT-peptide fusion (C-terminal peptide) (PSI (0-1 scale)); higher = more stable (slower turnover)
Conditions: temperature: 30 C
Method: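 MPS profiling in S. cerevisiae of the yeast C-terminome library: the last 12 aa of each annotated ORF are fused to the C-terminus of a sfGFP-mCherry timer, after a GGGS linker. Cells are FACS-sorted into 8 mCherry/sfGFP bins and deep-sequenced. PSI runs from 0 (unstable) to 1 (stable); wild type and das1Δ backgrounds, two technical replicates each.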

[1] = genetic background: das1 deletion

QNYPIVSFSRVI [OSW1 C-terminal 12 aa]
protein stability index [1]: 0.7236 ± 0.0058
protein stability index (genetic background: wild type): 0.685 ± 0.012

QPINLDSISDDL [DRE2 C-terminal 12 aa]
protein stability index [1]: 0.7068 ± 0.0039
protein stability index (genetic background: wild type): 0.766 ± 0.12

QQYFQEPQQGQY [MCM1 C-terminal 12 aa]
protein stability index [1]: 0.676 ± 0.0068
protein stability index (genetic background: wild type): 0.703 ± 0.077

QSATKNQQNQGK [SSQ1 C-terminal 12 aa]
protein stability index [1]: 0.679 ± 0.011
protein stability index (genetic background: wild type): 0.656 ± 0.01

QSKNIEIFSQIK [YGR067C C-terminal 12 aa]
protein stability index [1]: 0.71 ± 0.031
protein stability index (genetic background: wild type): 0.695 ± 0.018

QSQYSSRFVELD [MCO12 C-terminal 12 aa]
protein stability index [1]: 0.691 ± 0.015
protein stability index (genetic background: wild type): 0.6892 ± 0.0068

QVKLSILKSLGF [UBC7 C-terminal 12 aa]
protein stability index [1]: 0.702 ± 0.02
protein stability index (genetic background: wild type): 0.657 ± 0.0096

QVTAVVVSYQGV [ATG11 C-terminal 12 aa]
protein stability index [1]: 0.5882 ± 0.0024
protein stability index (genetic background: wild type): 0.5999 ± 0.0039

RAGSHSVGLLPM [UIP5 C-terminal 12 aa]
protein stability index [1]: 0.6976 ± 0.0019
protein stability index (genetic background: wild type): 0.6835 ± 0.0029

RAQPGRKRKHKK [RSC58 C-terminal 12 aa]
protein stability index [1]: 0.743 ± 0.019
protein stability index (genetic background: wild type): 0.696 ± 0.0068

RDGQKTSLIRLI [YBR259W C-terminal 12 aa]
protein stability index [1]: 0.711 ± 0.035
protein stability index (genetic background: wild type): 0.57 ± 0.11

REETEKLNINKD [YAR1 C-terminal 12 aa]
protein stability index [1]: 0.71 ± 0.014
protein stability index (genetic background: wild type): 0.66 ± 0.067

REVREIHEMYCK [YKR012C C-terminal 12 aa]
protein stability index [1]: 0.696 ± 0.034
protein stability index (genetic background: wild type): 0.6885 ± 0.0035

RGDDGESYAYLA [CDC53 C-terminal 12 aa]
protein stability index [1]: 0.69274 ± 0.00042
protein stability index (genetic background: wild type): 0.691 ± 0.0089

RGFSFMPDDLDL [PKC1 C-terminal 12 aa]
protein stability index [1]: 0.722 ± 0.013
protein stability index (genetic background: wild type): 0.72 ± 0.028

RHQGQNIYRSGV [MCM5 C-terminal 12 aa]
protein stability index [1]: 0.682 ± 0.03
protein stability index (genetic background: wild type): 0.674 ± 0.022

RHSMSEEELEMY [KTR4 C-terminal 12 aa]
protein stability index [1]: 0.689 ± 0.034
protein stability index (genetic background: wild type): 0.685 ± 0.044

RKFSSSTNLAKF [TOS8 C-terminal 12 aa]
protein stability index [1]: 0.779 ± 0.039
protein stability index (genetic background: wild type): 0.81 ± 0.012

RKGWTGFKKVFK [GYP5 C-terminal 12 aa]
protein stability index [1]: 0.695 ± 0.025
protein stability index (genetic background: wild type): 0.699 ± 0.061

RLAKKVARRNAD [RPS24A C-terminal 12 aa]
protein stability index [1]: 0.693 ± 0.0097
protein stability index (genetic background: wild type): 0.683 ± 0.024

RLGDVLHVCCPS [YHL049C C-terminal 12 aa]
protein stability index [1]: 0.717 ± 0.03
protein stability index (genetic background: wild type): 0.7 ± 0.097

RLKSSVICSGTS [YLR399W-A C-terminal 12 aa]
protein stability index [1]: 0.68237 ± 6.9e-05
protein stability index (genetic background: wild type): 0.664 ± 0.015

RMSNGLYTISMS [YPR050C C-terminal 12 aa]
protein stability index [1]: 0.694 ± 0.017
protein stability index (genetic background: wild type): 0.6869 ± 0.0011

RNLLSTYHPMLM [YLR124W C-terminal 12 aa]
protein stability index [1]: 0.679 ± 0.0082
protein stability index (genetic background: wild type): 0.665 ± 0.0023

RNRLENISTMVI [YIA6 C-terminal 12 aa]
protein stability index [1]: 0.71 ± 0.012
protein stability index (genetic background: wild type): 0.709 ± 0.019

RPWYVRQFHFWC [TAT2 C-terminal 12 aa]
protein stability index [1]: 0.713 ± 0.0097
protein stability index (genetic background: wild type): 0.538 ± 0.011

RQRRLQAAGRWF [PCP1 C-terminal 12 aa]
protein stability index [1]: 0.716 ± 0.014
protein stability index (genetic background: wild type): 0.6854 ± 0.0044

RRKITLIEDDEE [SAS3 C-terminal 12 aa]
protein stability index [1]: 0.715 ± 0.011
protein stability index (genetic background: wild type): 0.672 ± 0.019

RRLKNKQRTRFQ [YNR021W C-terminal 12 aa]
protein stability index [1]: 0.7264 ± 0.0013
protein stability index (genetic background: wild type): 0.698 ± 0.023

RRMKLKERKRTT [YBL029W C-terminal 12 aa]
protein stability index [1]: 0.713 ± 0.022
protein stability index (genetic background: wild type): 0.655 ± 0.05

RRNRGTPVKYTR [DOT1 C-terminal 12 aa]
protein stability index [1]: 0.6965 ± 0.0024
protein stability index (genetic background: wild type): 0.7 ± 0.016

RSHKCYPHDVRF [NAT3 C-terminal 12 aa]
protein stability index [1]: 0.7614 ± 0.0011
protein stability index (genetic background: wild type): 0.662 ± 0.024

RSVGKNSEKVST [QDR1 C-terminal 12 aa]
protein stability index [1]: 0.6986 ± 0.0019
protein stability index (genetic background: wild type): 0.695 ± 0.01

RTANVVGLDVPT [FMC1 C-terminal 12 aa]
protein stability index [1]: 0.683 ± 0.017
protein stability index (genetic background: wild type): 0.6639 ± 0.0044

RTAYILMYQKRN [UBP3 C-terminal 12 aa]
protein stability index [1]: 0.782 ± 0.014
protein stability index (genetic background: wild type): 0.1351 ± 0.00015

RTLTTGNYHGLA [SYP1 C-terminal 12 aa]
protein stability index [1]: 0.6833 ± 0.0056
protein stability index (genetic background: wild type): 0.6781 ± 0.0046

RVRRRLFAPEST [SLD3 C-terminal 12 aa]
protein stability index [1]: 0.716 ± 0.018
protein stability index (genetic background: wild type): 0.802 ± 0.075

RYRLSQRQESKK [MRX4 C-terminal 12 aa]
protein stability index [1]: 0.698 ± 0.011
protein stability index (genetic background: wild type): 0.682 ± 0.021

SAIENYRKAYGI [URA10 C-terminal 12 aa]
protein stability index [1]: 0.664 ± 0.038
protein stability index (genetic background: wild type): 0.69935 ± 0.00068

SALILMYKGFGL [UBP6 C-terminal 12 aa]
protein stability index [1]: 0.664 ± 0.022
protein stability index (genetic background: wild type): 0.683 ± 0.015

SALNKIKADEKK [ACO1 C-terminal 12 aa]
protein stability index [1]: 0.689 ± 0.024
protein stability index (genetic background: wild type): 0.684 ± 0.024

SDEEPSSKKRKV [VPS75 C-terminal 12 aa]
protein stability index [1]: 0.703 ± 0.035
protein stability index (genetic background: wild type): 0.678 ± 0.01

SDQKGGRSVSTS [YLR001C C-terminal 12 aa]
protein stability index [1]: 0.6896 ± 0.0021
protein stability index (genetic background: wild type): 0.734 ± 0.017

SEGLQFLQREKK [MSE1 C-terminal 12 aa]
protein stability index [1]: 0.711 ± 0.011
protein stability index (genetic background: wild type): 0.681 ± 0.011

SEVKGYSKLNIV [ASI3 C-terminal 12 aa]
protein stability index [1]: 0.695 ± 0.026
protein stability index (genetic background: wild type): 0.668 ± 0.035

SFFIYVNFTVYF [YCR001W C-terminal 12 aa]
protein stability index [1]: 0.175 ± 0.036
protein stability index (genetic background: wild type): 0.178 ± 0.033

SFHKEFFDQYRD [ALT1 C-terminal 12 aa]
protein stability index [1]: 0.7326 ± 0.0045
protein stability index (genetic background: wild type): 0.774 ± 0.048

SFVKIQDAIKKT [MRPL9 C-terminal 12 aa]
protein stability index [1]: 0.7417 ± 0.0063
protein stability index (genetic background: wild type): 0.627 ± 0.015

SGETSDIIFRNY [ADK2 C-terminal 12 aa]
protein stability index [1]: 0.74 ± 0.023
protein stability index (genetic background: wild type): 0.786 ± 0.012

SGKRGVGKTDFR [NOG1 C-terminal 12 aa]
protein stability index [1]: 0.716 ± 0.00084
protein stability index (genetic background: wild type): 0.6901 ± 0.00098

SGPVEELVSPSK [IRC8 C-terminal 12 aa]
protein stability index [1]: 0.7034 ± 0.0033
protein stability index (genetic background: wild type): 0.685 ± 0.032

SHEQKFENVQKE [STF2 C-terminal 12 aa]
protein stability index [1]: 0.711 ± 0.017
protein stability index (genetic background: wild type): 0.705 ± 0.012

SISVLFDSLAAL [PRS1 C-terminal 12 aa]
protein stability index [1]: 0.714 ± 0.0093
protein stability index (genetic background: wild type): 0.736 ± 0.022

SKADSYRSVIRH [DLT1 C-terminal 12 aa]
protein stability index [1]: 0.667 ± 0.037
protein stability index (genetic background: wild type): 0.675 ± 0.023

SKFGSIFKKVFG [YGR237C C-terminal 12 aa]
protein stability index [1]: 0.689 ± 0.017
protein stability index (genetic background: wild type): 0.775 ± 0.077

SKKVICNTFGYN [DDI2 C-terminal 12 aa]
protein stability index [1]: 0.689 ± 0.027
protein stability index (genetic background: wild type): 0.733 ± 0.1

SKMLKNKIPLKN [YGL138C C-terminal 12 aa]
protein stability index [1]: 0.667 ± 0.0083
protein stability index (genetic background: wild type): 0.685 ± 0.039

SKREFIESLRPK [SKG1 C-terminal 12 aa]
protein stability index [1]: 0.707 ± 0.029
protein stability index (genetic background: wild type): 0.679 ± 0.03

SLCKNTIISSSV [YAL063C-A C-terminal 12 aa]
protein stability index [1]: 0.693 ± 0.023
protein stability index (genetic background: wild type): 0.703 ± 0.035

SLDDFGVDVDME [PFA4 C-terminal 12 aa]
protein stability index [1]: 0.711 ± 0.016
protein stability index (genetic background: wild type): 0.683 ± 0.016

SLDQEIQSLLSK [GPX2 C-terminal 12 aa]
protein stability index [1]: 0.6903 ± 0.0018
protein stability index (genetic background: wild type): 0.654 ± 0.028
